The chains are these.
B1: hu22E12.H2L2 (antibody, V domains shown)
VH: QVQLVQSGAEVKKPGASVKVSCKASGYTFTNWVHWVRQAPGQGLEWMGEINPTNARSNYNEKFKKRVTMTRDRSTSTVYMELSSLRSEDTAVYFCAGIYYGNSFAHWGQGTLVTVSS
VL: DIVMTQSPDSLAVSLGERATINCKSSQSLLNAGNQKNYLTWYQQKPGQPPKLLIYWSSTRESGVPDRFSGSGSGTDFTLTISSLQAEDVAVYHCQNNYYYPLTFGGGTKLEIK
notes: humanized 22E12
B2: hu22E12.H2L1 (antibody, V domains shown)
VH: QVQLVQSGAEVKKPGASVKVSCKASGYTFTNWVHWVRQAPGQGLEWMGEINPTNARSNYNEKFKKRVTMTRDRSTSTVYMELSSLRSEDTAVYFCAGIYYGNSFAHWGQGTLVTVSS
VL: DIVMTQSPDSLAVSLGERATINCKSSQSLLNAGNQKNYLTWYQQKPGQPPKLLIYWSSTRESGVPDRFSGSGSGTDFTLTISSLQAEDVAVYYCQNNYYYPLTFGGGTKLEIK
notes: humanized 22E12
B3: hu22E12.H1L3 (antibody, V domains shown)
VH: QVQLVQSGAEVKKPGASVKVSCKASGYTFTNWVHWVRQAPGQGLEWMGEINPTNARSNYNEKFKKRVTMTRDTSTSTVYMELSSLRSEDTAVYYCARIYYGNSFAHWGQGTLVTVSS
VL: DIVMTQSPDSLAVSLGERVTLNCKSSQSLLNAGNQKNYLTWYQQKPGQPPKLLIYWSSTRESGVPDRFSGSGSGTDFTLTISSVQAEDVAVYHCQNNYYYPLTFGGGTKLEIK
notes: humanized 22E12
B4: hu22E12.H3L2 (antibody, V domains shown)
VH: QVQLVQSGAEVVKPGASVKVSCKASGYTFTNWVHWVIQAPGQGLEWMGEINPTNARSNYNEKFKKRVTMTLDRSTSTVYMELSSLRSEDTAVYFCAGIYYGNSFAHWGQGTLVTVSS
VL: DIVMTQSPDSLAVSLGERATINCKSSQSLLNAGNQKNYLTWYQQKPGQPPKLLIYWSSTRESGVPDRFSGSGSGTDFTLTISSLQAEDVAVYHCQNNYYYPLTFGGGTKLEIK
notes: humanized 22E12
B5: hu22E12.H4L3 (antibody, V domains shown)
VH: QVQLVQSGAEVVKPGASVKLSCKASGYTFTNWVHWVIQAPGQGLEWIGEINPTNARSNYNEKFKKRVTLTLDRSTSTVYMELSSLRSEDTAVYFCAGIYYGNSFAHWGQGTLVTVSS
VL: DIVMTQSPDSLAVSLGERVTLNCKSSQSLLNAGNQKNYLTWYQQKPGQPPKLLIYWSSTRESGVPDRFSGSGSGTDFTLTISSVQAEDVAVYHCQNNYYYPLTFGGGTKLEIK
notes: humanized 22E12
B6: hu22E12.H4L2 (antibody, V domains shown)
VH: QVQLVQSGAEVVKPGASVKLSCKASGYTFTNWVHWVIQAPGQGLEWIGEINPTNARSNYNEKFKKRVTLTLDRSTSTVYMELSSLRSEDTAVYFCAGIYYGNSFAHWGQGTLVTVSS
VL: DIVMTQSPDSLAVSLGERATINCKSSQSLLNAGNQKNYLTWYQQKPGQPPKLLIYWSSTRESGVPDRFSGSGSGTDFTLTISSLQAEDVAVYHCQNNYYYPLTFGGGTKLEIK
notes: humanized 22E12
B7: hu22E12.H3L3 (antibody, V domains shown)
VH: QVQLVQSGAEVVKPGASVKVSCKASGYTFTNWVHWVIQAPGQGLEWMGEINPTNARSNYNEKFKKRVTMTLDRSTSTVYMELSSLRSEDTAVYFCAGIYYGNSFAHWGQGTLVTVSS
VL: DIVMTQSPDSLAVSLGERVTLNCKSSQSLLNAGNQKNYLTWYQQKPGQPPKLLIYWSSTRESGVPDRFSGSGSGTDFTLTISSVQAEDVAVYHCQNNYYYPLTFGGGTKLEIK
notes: humanized 22E12
B8: hu22E12.H1L1 (antibody, V domains shown)
VH: QVQLVQSGAEVKKPGASVKVSCKASGYTFTNWVHWVRQAPGQGLEWMGEINPTNARSNYNEKFKKRVTMTRDTSTSTVYMELSSLRSEDTAVYYCARIYYGNSFAHWGQGTLVTVSS
VL: DIVMTQSPDSLAVSLGERATINCKSSQSLLNAGNQKNYLTWYQQKPGQPPKLLIYWSSTRESGVPDRFSGSGSGTDFTLTISSLQAEDVAVYYCQNNYYYPLTFGGGTKLEIK
notes: humanized 22E12
B9: hu22E12.H3L1 (antibody, V domains shown)
VH: QVQLVQSGAEVVKPGASVKVSCKASGYTFTNWVHWVIQAPGQGLEWMGEINPTNARSNYNEKFKKRVTMTLDRSTSTVYMELSSLRSEDTAVYFCAGIYYGNSFAHWGQGTLVTVSS
VL: DIVMTQSPDSLAVSLGERATINCKSSQSLLNAGNQKNYLTWYQQKPGQPPKLLIYWSSTRESGVPDRFSGSGSGTDFTLTISSLQAEDVAVYYCQNNYYYPLTFGGGTKLEIK
notes: humanized 22E12
B10: hu22E12.H2L3 (antibody, V domains shown)
VH: QVQLVQSGAEVKKPGASVKVSCKASGYTFTNWVHWVRQAPGQGLEWMGEINPTNARSNYNEKFKKRVTMTRDRSTSTVYMELSSLRSEDTAVYFCAGIYYGNSFAHWGQGTLVTVSS
VL: DIVMTQSPDSLAVSLGERVTLNCKSSQSLLNAGNQKNYLTWYQQKPGQPPKLLIYWSSTRESGVPDRFSGSGSGTDFTLTISSVQAEDVAVYHCQNNYYYPLTFGGGTKLEIK
notes: humanized 22E12
B11: hu22E12.H4L1 (antibody, V domains shown)
VH: QVQLVQSGAEVVKPGASVKLSCKASGYTFTNWVHWVIQAPGQGLEWIGEINPTNARSNYNEKFKKRVTLTLDRSTSTVYMELSSLRSEDTAVYFCAGIYYGNSFAHWGQGTLVTVSS
VL: DIVMTQSPDSLAVSLGERATINCKSSQSLLNAGNQKNYLTWYQQKPGQPPKLLIYWSSTRESGVPDRFSGSGSGTDFTLTISSLQAEDVAVYYCQNNYYYPLTFGGGTKLEIK
notes: humanized 22E12
B12: hu35B4.H2L2 (antibody, V domains shown)
VH: EVQLLESGGGLVQPGGSLRLSCAASGFTLSSYALSWVRQAPGKGLEWVSYISNLGGSTFYPDTVKGRFTISRDNSKNTLYLQMNSLRAEDTAVYYCATHLYNYDAFASWGQGTLVTVSS
VL: DIQLTQSPSFLSASVGDRVTITCRASSSVNYIHWYQQKPGKAPKALIYATSNLASGVPSRFSGSGSGTEYTLTISSLQPEDFATYYCQQWNSNPLTFGQGTKLEIK
notes: humanized 35B4
B13: hu35B4.H3L3 (antibody, V domains shown)
VH: EVQLLESGGGLVQPGGSLRLSCAASGFTLSSYALSWVRQAPGKGLEWVAYISNLGGSTFYPDTVKGRFTISRDNSKNTLYLQMNSLRAEDTAVYYCATHLYNYDAFASWGQGTLVTVSS
VL: DIQLTQSPSFLSASVGDRVTITCRASSSVNYIHWYQQKPGKSPKALIYATSNLASGVPSRFSGSGSGTEYTLTISSLQPEDFATYYCQQWNSNPLTFGQGTKLEIK
notes: humanized 35B4
B14: hu35B4.H2L1 (antibody, V domains shown)
VH: EVQLLESGGGLVQPGGSLRLSCAASGFTLSSYALSWVRQAPGKGLEWVSYISNLGGSTFYPDTVKGRFTISRDNSKNTLYLQMNSLRAEDTAVYYCATHLYNYDAFASWGQGTLVTVSS
VL: DIQLTQSPSFLSASVGDRVTITCRASSSVNYIHWYQQKPGKAPKLLIYATSNLASGVPSRFSGSGSGTEFTLTISSLQPEDFATYYCQQWNSNPLTFGQGTKLEIK
notes: humanized 35B4
B15: hu35B4.H1L4 (antibody, V domains shown)
VH: EVQLLESGGGLVQPGGSLRLSCAASGFTLSSYALSWVRQAPGKGLEWVSYISNLGGSTFYPDTVKGRFTISRDNSKNTLYLQMNSLRAEDTAVYYCAKHLYNYDAFASWGQGTLVTVSS
VL: DIQLTQSPSFLSASVGDRVTMTCRASSSVNYIHWYQQKPGKSPKALIYATSNLASGVPSRFSGSGSGTEYTLTISSVQPEDFATYYCQQWNSNPLTFGQGTKLEIK
notes: humanized 35B4
B16: hu35B4.H3L1 (antibody, V domains shown)
VH: EVQLLESGGGLVQPGGSLRLSCAASGFTLSSYALSWVRQAPGKGLEWVAYISNLGGSTFYPDTVKGRFTISRDNSKNTLYLQMNSLRAEDTAVYYCATHLYNYDAFASWGQGTLVTVSS
VL: DIQLTQSPSFLSASVGDRVTITCRASSSVNYIHWYQQKPGKAPKLLIYATSNLASGVPSRFSGSGSGTEFTLTISSLQPEDFATYYCQQWNSNPLTFGQGTKLEIK
notes: humanized 35B4
B17: hu35B4.H2L4 (antibody, V domains shown)
VH: EVQLLESGGGLVQPGGSLRLSCAASGFTLSSYALSWVRQAPGKGLEWVSYISNLGGSTFYPDTVKGRFTISRDNSKNTLYLQMNSLRAEDTAVYYCATHLYNYDAFASWGQGTLVTVSS
VL: DIQLTQSPSFLSASVGDRVTMTCRASSSVNYIHWYQQKPGKSPKALIYATSNLASGVPSRFSGSGSGTEYTLTISSVQPEDFATYYCQQWNSNPLTFGQGTKLEIK
notes: humanized 35B4
B18: hu35B4.H3L2 (antibody, V domains shown)
VH: EVQLLESGGGLVQPGGSLRLSCAASGFTLSSYALSWVRQAPGKGLEWVAYISNLGGSTFYPDTVKGRFTISRDNSKNTLYLQMNSLRAEDTAVYYCATHLYNYDAFASWGQGTLVTVSS
VL: DIQLTQSPSFLSASVGDRVTITCRASSSVNYIHWYQQKPGKAPKALIYATSNLASGVPSRFSGSGSGTEYTLTISSLQPEDFATYYCQQWNSNPLTFGQGTKLEIK
notes: humanized 35B4
B19: hu35B4.H2L3 (antibody, V domains shown)
VH: EVQLLESGGGLVQPGGSLRLSCAASGFTLSSYALSWVRQAPGKGLEWVSYISNLGGSTFYPDTVKGRFTISRDNSKNTLYLQMNSLRAEDTAVYYCATHLYNYDAFASWGQGTLVTVSS
VL: DIQLTQSPSFLSASVGDRVTITCRASSSVNYIHWYQQKPGKSPKALIYATSNLASGVPSRFSGSGSGTEYTLTISSLQPEDFATYYCQQWNSNPLTFGQGTKLEIK
notes: humanized 35B4
B20: hu35B4.H1L3 (antibody, V domains shown)
VH: EVQLLESGGGLVQPGGSLRLSCAASGFTLSSYALSWVRQAPGKGLEWVSYISNLGGSTFYPDTVKGRFTISRDNSKNTLYLQMNSLRAEDTAVYYCAKHLYNYDAFASWGQGTLVTVSS
VL: DIQLTQSPSFLSASVGDRVTITCRASSSVNYIHWYQQKPGKSPKALIYATSNLASGVPSRFSGSGSGTEYTLTISSLQPEDFATYYCQQWNSNPLTFGQGTKLEIK
notes: humanized 35B4
B21: hu35B4.H1L1 (antibody, V domains shown)
VH: EVQLLESGGGLVQPGGSLRLSCAASGFTLSSYALSWVRQAPGKGLEWVSYISNLGGSTFYPDTVKGRFTISRDNSKNTLYLQMNSLRAEDTAVYYCAKHLYNYDAFASWGQGTLVTVSS
VL: DIQLTQSPSFLSASVGDRVTITCRASSSVNYIHWYQQKPGKAPKLLIYATSNLASGVPSRFSGSGSGTEFTLTISSLQPEDFATYYCQQWNSNPLTFGQGTKLEIK
notes: humanized 35B4

For one test, the target named is T1, human CLDN18.2 (hCLDN18.2), expressed on cells (human).
T1 construct: the constructs in the cell lines are not described; also called Claudin18.2; HEK293-hCLDN18.2
Nature of the test: FACS, MFC cells over-expressing hCLDN18.2. A general note: Flow cytometry measures light scatter and fluorescence of single cells or particles in a stream.
Consider B1, for which a half-maximal effect (EC50) was put at 0.586 nM.

For B2, the EC50 – broadly, the concentration giving half of the maximal effect – was 0.656 nM.

For the molecule B3, the EC50 turned out to be 1.08 nM.

On to B4, for which the 50% effective concentration (EC50) is 1.25 nM.

As for B5, the EC50 came out at 2 nM.

In turn, B6 gave an EC50 of 1.05 nM.

As for B7, the EC50 came to 1.19 nM.

B8 returned an EC50 of 1.31 nM.

For B9, the EC50 is 1.23 nM.

B10 yielded an EC50 of 0.642 nM.

As to B11, a half-maximal response (EC50) required 1.16 nM.

Another test has as its target T1, human CLDN18.2 (hCLDN18.2), expressed …. Put plainly: FACS, SNU620 cells over-expressing hCLDN18.2.
In turn, B12 yielded an EC50 of 0.439 nM.

Molecule B13 showed an EC50 of 0.319 nM.

On to B14, for which the midpoint of the response, the EC50, lay at 0.355 nM.

B15 returned an EC50 of 0.474 nM.

Consider B16, for which the midpoint of the response, the EC50, lay at 0.258 nM.

Molecule B17 had an EC50 of 0.367 nM.

B18 yielded an EC50 of 0.297 nM.

As for B19, a half-maximal effect (EC50) was put at 0.413 nM.

In turn, B20 came in with an EC50 of 0.382 nM.

As for B21, the EC50 worked out at 0.525 nM.
